The target in assay [1] is T1, AT5G67580.1 TRB2 (Arabidopsis thaliana, UniProt Q9FJW5 1-299).
T1 construct: Endogenous protein found by mass spectrometry
T1 sequence: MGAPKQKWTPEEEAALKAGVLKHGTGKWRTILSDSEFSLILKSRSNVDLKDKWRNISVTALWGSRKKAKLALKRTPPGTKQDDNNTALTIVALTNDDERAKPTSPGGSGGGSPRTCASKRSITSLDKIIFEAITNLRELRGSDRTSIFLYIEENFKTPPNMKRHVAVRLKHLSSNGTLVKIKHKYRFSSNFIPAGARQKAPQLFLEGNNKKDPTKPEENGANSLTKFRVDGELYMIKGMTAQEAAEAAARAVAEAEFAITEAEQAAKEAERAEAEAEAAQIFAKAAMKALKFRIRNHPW
Put plainly: IP-MS rep 1. In short, it runs like this: (§1)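 Mass spectrometry of anti-FLAG eluates gave the peptide counts for co-purified proteins. The eluates came from ten grams of unopened floral buds of wild-type and FLAG-tagged transgenic Arabidopsis, ground in liquid nitrogen and homogenised in 25 mL IP buffer. Lysates were bound to 250 μL anti-FLAG M2 magnetic beads for 2 hours at 4° C and released with 250 μg/mL 3×FLAG peptides in TBS.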

Assay [2] deals with T2, AT2G17540.2 TRBIP2 (Arabidopsis thaliana).
T2 construct: Endogenous protein found by mass spectrometry
T2 chain: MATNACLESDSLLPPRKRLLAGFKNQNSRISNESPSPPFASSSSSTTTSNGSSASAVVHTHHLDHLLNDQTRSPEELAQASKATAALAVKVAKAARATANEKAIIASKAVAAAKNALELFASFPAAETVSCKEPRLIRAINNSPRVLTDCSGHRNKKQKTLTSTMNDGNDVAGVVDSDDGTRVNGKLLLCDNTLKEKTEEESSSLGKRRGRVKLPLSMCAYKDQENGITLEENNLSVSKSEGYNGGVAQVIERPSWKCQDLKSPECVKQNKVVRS
The assay is described as follows: IP-MS rep 1. An outline of the steps:
as §1

Assay [3] has as its target T3, AT1G49950.3 TRB1 (Arabidopsis thaliana, UniProt Q8VWK4 1-300, limits assumed).
T3 construct: Endogenous protein found by mass spectrometry
T3 sequence: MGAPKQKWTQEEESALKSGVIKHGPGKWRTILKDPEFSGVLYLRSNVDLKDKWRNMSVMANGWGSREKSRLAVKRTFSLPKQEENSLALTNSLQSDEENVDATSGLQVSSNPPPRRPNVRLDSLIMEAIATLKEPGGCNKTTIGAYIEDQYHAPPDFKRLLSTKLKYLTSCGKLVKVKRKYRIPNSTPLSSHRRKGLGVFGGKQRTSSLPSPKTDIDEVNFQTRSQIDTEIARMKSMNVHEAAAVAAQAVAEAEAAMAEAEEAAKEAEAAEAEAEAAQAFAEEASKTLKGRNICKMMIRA
The assay is described as follows: IP-MS rep 1. In short, it runs like this:
as §1

For assay [4], the target named is T4, AT5G08450.1 HDC1 (Arabidopsis thaliana).
T4 construct: Endogenous protein found by mass spectrometry
The assay is described as follows: IP-MS rep 1. An outline of the steps:
as §1

The target in assay [5] is T5, AT3G10480.3 NAC050 (Arabidopsis thaliana, UniProt Q9SQX9 1-447, limits assumed).
T5 construct: Endogenous protein found by mass spectrometry
T5 sequence (looked up): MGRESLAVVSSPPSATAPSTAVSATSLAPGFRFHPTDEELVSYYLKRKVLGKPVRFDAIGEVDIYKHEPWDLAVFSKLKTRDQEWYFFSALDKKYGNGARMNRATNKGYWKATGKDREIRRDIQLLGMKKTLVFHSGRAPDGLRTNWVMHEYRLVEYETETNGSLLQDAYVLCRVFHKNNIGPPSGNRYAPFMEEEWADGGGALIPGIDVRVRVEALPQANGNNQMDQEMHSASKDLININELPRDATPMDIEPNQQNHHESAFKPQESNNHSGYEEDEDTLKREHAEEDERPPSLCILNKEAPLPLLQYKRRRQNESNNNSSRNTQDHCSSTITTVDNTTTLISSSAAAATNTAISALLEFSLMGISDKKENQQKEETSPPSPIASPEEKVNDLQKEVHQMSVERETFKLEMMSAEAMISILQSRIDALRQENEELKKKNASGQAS
Put plainly: IP-MS rep 1. An outline of the steps: as §1

Assay [6] deals with T6, AT3G49850.1 TRB3 (Arabidopsis thaliana, UniProt Q9M2X3 1-295).
T6 construct: Endogenous protein found by mass spectrometry
T6 sequence: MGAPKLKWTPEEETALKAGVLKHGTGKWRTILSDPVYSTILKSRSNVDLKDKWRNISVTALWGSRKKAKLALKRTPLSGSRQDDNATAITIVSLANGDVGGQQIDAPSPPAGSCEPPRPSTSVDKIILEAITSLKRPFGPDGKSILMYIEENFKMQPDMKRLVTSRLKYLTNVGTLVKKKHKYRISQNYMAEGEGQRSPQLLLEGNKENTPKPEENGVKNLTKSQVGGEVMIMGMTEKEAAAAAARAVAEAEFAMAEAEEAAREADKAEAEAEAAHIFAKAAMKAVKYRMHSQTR
The assay is described as follows: IP-MS rep 1. In short, it runs like this: as §1

Assay [7] addresses T1, AT5G67580.1 TRB2. The assay is described as follows: IP-MS rep 2. In short, it runs like this: as §1
The target of assay [8] is T2, AT2G17540.2 TRBIP2. The assay is described as follows: IP-MS rep 2. In short, it runs like this: as §1
The target of assay [9] is T3, AT1G49950.3 TRB1. The assay is described as follows: IP-MS rep 2. In short, it runs like this: as §1
The target of assay [10] is T4, AT5G08450.1 HDC1. Put plainly: IP-MS rep 2. An outline of the steps:
as §1

Assay [11] addresses T5, AT3G10480.3 NAC050. Put plainly: IP-MS rep 2. In short, it runs like this:
as §1

In assay [12] the target is T6, AT3G49850.1 TRB3. The assay is described as follows: IP-MS rep 2. In short, it runs like this: as §1
A further assay deals with T7, PIAL2-Myc (Arabidopsis thaliana, UniProt F4JYG0 1-760).
T7 construct: not shown: C-terminal 9XMYC tag and BLRP (pEG302 vector)
T7 sequence: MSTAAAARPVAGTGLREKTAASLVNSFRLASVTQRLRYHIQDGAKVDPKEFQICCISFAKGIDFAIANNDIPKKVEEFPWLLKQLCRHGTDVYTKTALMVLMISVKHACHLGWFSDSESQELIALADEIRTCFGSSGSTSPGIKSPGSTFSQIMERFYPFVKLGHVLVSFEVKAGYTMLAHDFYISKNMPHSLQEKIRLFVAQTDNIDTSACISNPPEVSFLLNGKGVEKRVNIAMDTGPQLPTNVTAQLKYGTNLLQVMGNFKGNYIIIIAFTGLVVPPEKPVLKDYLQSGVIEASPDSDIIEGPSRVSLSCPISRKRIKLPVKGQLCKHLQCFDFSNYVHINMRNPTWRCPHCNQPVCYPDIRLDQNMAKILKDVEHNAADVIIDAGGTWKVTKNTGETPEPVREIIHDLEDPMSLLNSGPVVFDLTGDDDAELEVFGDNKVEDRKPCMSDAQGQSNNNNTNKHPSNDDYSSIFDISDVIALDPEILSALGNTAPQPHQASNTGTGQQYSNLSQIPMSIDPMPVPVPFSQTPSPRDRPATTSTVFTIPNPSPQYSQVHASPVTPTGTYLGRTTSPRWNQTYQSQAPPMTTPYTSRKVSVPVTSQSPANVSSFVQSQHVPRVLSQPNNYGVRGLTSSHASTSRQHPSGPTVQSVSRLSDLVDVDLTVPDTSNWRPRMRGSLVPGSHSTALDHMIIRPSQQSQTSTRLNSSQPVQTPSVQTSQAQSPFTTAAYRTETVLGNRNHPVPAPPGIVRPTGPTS
The assay is described as follows: co-IP, anti-FLAG, crossed lines. How it is done:
The Co-IP assays in this study were performed by following previous protocol (see e.g., Wang, Science, 2016) with some modifications. 2 grams of 2-week-old seedling tissue were collected from Arabidopsis transgenic lines: JMJ14-FLAG×TRB1-Myc and TRB1-Myc; MORC6-FLAG×PIAL2-Myc and PIAL2-Myc. The samples were ground into fine powder with liquid nitrogen, resuspended with 10 mL IP buffer, and incubate 20 minutes at 4° C. The lysate was centrifuged and filtered through Miracloth for two times, and the supernatant was incubated with 30 μL anti-FLAG M2 Affinity Gel (Millipore) for 2 hours at 4° C. The anti-FLAG beads were washed with IP buffer for a total of 5 times, and the protein was eluted with 40 μL elution buffer (IP buffer containing 100 μg/mL 3×FLAG peptide as final concentration). The supernatant was mixed with 5×SDS loading buffer and subject to Western blot.

B1: TRBIP1 (bait of the TRBIP1 IP-MS) (other, not shown: small tags and cut ends)
chain: METNPCDMNQLDSDSHLPPRKRLLAGFKKFNSNGINGSSPSDFASSSSTSNSNGSSSASTNVQTHLGNLLSSPFNNDQSPEELVEATRSAAALAVKAAKAARAIANEKALISAKAIAAAKRALELVDSFPKEAMADCKERSPRKNKQKKHVPVELLYSKGQLRDEEDDLARRLHRAIDNTSYPRVLRTSEENGQRYKKQKKNKSVVEGGSSSIIVTGSMKDIAGVVDSDSSYEGLEIARSNRDEADSMLMMEKSGEESNSLVKRRGRVKLKKLPLSICNSRNQENGTSSASPLPVAQPQEDGGAITVIAGSSSWKCQDIKAPECVKQNKAVRS
notes: tag and its position not described; also called TRBIP1-1; TRBIP1-2
In the case of B1, the IP-MS count was 66 with AT5G67580.1 TRB2 [1]; 0 in the assay with AT2G17540.2 TRBIP2 [2]; 39 in the assay with AT1G49950.3 TRB1 [3]; 8 with AT5G08450.1 HDC1 [4]; 2 with AT3G10480.3 NAC050 [5]; 31 with AT3G49850.1 TRB3 [6]. The IP-MS count with AT5G67580.1 TRB2 [7] stood at 36; in the assay with AT2G17540.2 TRBIP2 [8] it was 0; in the assay with AT1G49950.3 TRB1 [9], 15; with AT5G08450.1 HDC1 [10], 2; with AT3G10480.3 NAC050 [11], 0; with AT3G49850.1 TRB3 [12] it was 19.

B2: MORC6-FLAG (other, Arabidopsis thaliana, UniProt Q56Y74 1-663, looked up)
chain: MSHDRSVNVSHDAVIAKPERGTMLQSFSPRSHGSKGYSLPQDSEENRGSVGQSAGQSSTSVVDQVRSPADDAGVTSSSTICPAPVCRQFWKAGSYNDELSSKSQQPNGKNYLHVHPMFLHSNATSHKWAFGAVAELLDNAVDEIQNGATFVIVDKTTNPRDGATALLIQDDGGGMDPQAMRHCMGFGFSDKKSDSAIGRYGNGFKTSTMRLGADVIVFSRHSKNQTLTQSIGLLSYTYLTRTGHDRIVVPILDYEFNASAGEFKTLQDREHFISSLSILLEWSPFSTEAELLQQFDDVGPHGTKVIIYNMWLNSDAKLELDFDSVAEDILIEGSIKKTGSKIVNDHIASRFSYSLRVYLSILYLRIPETFKIILRGKVVEHHNVADDLMHPQYILYKPQAAGSEEALVVTTIGFLKEAPKVNLHGFCVYHKNRLIMPFWQVINYSSSRGRGVVGVLEANFVEPTHNKQDFEKTVLLQKLENRLKEMTVEYWSCHCVLIGYQVNKKPRLQIPQKVQPAGRQALSPPPGFQAVFPQGNTTSLPRVSTQPVLLEKRKEHPDSVASAALKRKVGNDDFTVPGHIRVEQFIHGSASQSQDIETVKLMEENKKLRAKCLDRKVRSQNLEVKAMNLRSELENYKSEYERLMVELQALDLVKDEHRRNVNT
notes: not shown: FLAG tag (3xFLAG-BLRP vector described)
As for B2, in the assay with PIAL2-Myc, the binding result is “binds”.

For the origin of these results see patent publication US20250042956A1 (University of California, published 2025).
